8 molecules from paper PMC4118869 (PLoS ONE, 2014) can be followed below.

As a reminder, the Kd is a measure of binding affinity in units of concentration. As a reminder, the koff is the first-order rate constant of dissociation. As usually defined, the kon is the rate constant with which the complex forms.

B1: R1a-A5 (VHH)
VHH: QVQLVESGGGLVQPGGSLRLSCSASGSAVLFSTYPMSWYRQAPGKQRELVAAVTTDGSTSYADYAKGRFTISRDNAKNTVYLQMNSLKPEDTAVYYCNARDGFFNRYDYWGQGTQVTVSS
notes: also called R1a-A5 monovalent; source: E. coli WK6 periplasm, purified (Talon IMAC, Superdex 75 SEC)
B2: R1a-E6 (VHH)
VHH: QVQLVESGGGLVQPGGSLRLSCAASGFTLGAYAIAWFRQAPGKEREGVSCISPSDSFTEYGDSVKGRFTVSRDNAKNTVYLQMNSLQPEDTAVYYCAADPVCTAGWYRPSRFDLWGQGTQVTVSS
notes: source: E. coli WK6 periplasm, purified (Talon IMAC, Superdex 75 SEC)
B3: R2b-D8 (VHH)
VHH: QVQLVESGGGLVQPGGSLRLSCAASGFTFSWYDVGWYRRAPGKERELVADIASTRGTTNYADSVKGRFTISRDNAKNSVYLQMNSLKPEDTAVYYCNTRRDWRDYWGQGIQVTVSS
notes: as for B2
B4: R2a-G8 (VHH)
VHH: QLQLAESGGGLVQAGGSLRLSCAASGSTLNNNAIGWFRQAPGKEREGVSCMNSRDGTTNYADSVKGRFTISRDVAKNTVYLQMNSLKPEDTAVYFCAVKGFAPFLIGCPWGKAEYDYWGQGTQVTVSS
notes: as for B2
B5: R2b-D9 (VHH)
VHH: QVQLVESGGGLVQPGGSLRLSCLASGSAFSLYTMGWYRQAPGNQRELVAAITSGESTNYADSVKGRFTISRDNAKNTVYLQMNSLKPEDTAVYYCNADPLSTGWGQYSYWGQGTQVTVSS
notes: as for B2
B6: R1a-G6 (VHH)
VHH: QVQLVESGGGLVQSGGSLRLSCAASGSMSRIITMGWYRQAPGMERELVAVIGNNDNTVYGDSVQGRFTVSRDNAKNTAYLQMNSLNAEDTAMYYCKISTLTPPHEYWGQGTQVTVSS
notes: as for B2
B7: R2a-F9 (VHH)
VHH: QVQLVESGGGLVQPGGSLRLSCSASGSISSIVTMGWYRQAPGKERELVAVIGNYGNTNYADSVKGRFTVSRDNAKNTVYLQMNSLNVEDTAMYVCKFSSTVAPHEYWGQGTQVTVSS
notes: as for B2
B8: R1a-B6 (VHH)
VHH: QVQLVESGGGLVQPGGSLRLSCAASGSFFSRYRMGWYRQAPGEQRELVASIAYDGSTSYADPVKGRFTISRDNANTVHLQMYSLKPDDTAVYYCNLDPPGILYWGQGTQVTVSS
notes: also called R1a-B6 monovalent; source: E. coli WK6 periplasm, purified (Talon IMAC, Superdex 75 SEC)

In the first assay the target is hemagglutinin of A/Brisbane/10/2007 (H3N2), in the influenza virus antigen standard (Influenza A virus A/Brisbane/10/2007 …, UniProt A8W8K8, strain). Briefly: ELISA. The following applies: one partner purified.
Regarding B1, the binding result is “no binding”.

For the molecule B2, the binding result is given as “no binding”.

For the molecule B3, the binding result is recorded as “no binding”.

B4: the binding result was “no binding”.

Turning to B5, the binding result was “no binding”.

With B6, the binding result is on record as “no binding”.

Take B7: the binding result was “no binding”.

Consider B8, for which the binding result was “no binding”.

The target of a further assay is hemagglutinin of A/Anhui/01/2005 (H5N1), in the influenza virus antigen standard (Influenza A virus A/Anhui/1/2005 (H5N1), UniProt Q1WDM0, strain). The experiment in a line: ELISA. Conditions: one partner purified.
In the case of B1, the binding result was “binds”.

Turning to B3, the binding result is recorded as “binds”.

As for B4, the binding result is “binds”.

For B5, the binding result is recorded as “binds”.

For the molecule B8, the binding result is given as “binds”.

For the next assay, the target named is hemagglutinin of A/Indonesia/05/2005 (H5N1), in the influenza virus antigen standard (Influenza A virus A/Indonesia/05/2005 …, UniProt A5A5L7, strain). The experiment in a line: ELISA. Conditions: one partner purified. (ELISA stands for enzyme-linked immunosorbent assay.)
For B1, the binding result is “binds”.

In the case of B3, the binding result is listed as “binds”.

B4: the binding result is reported as “binds”.

With B5, the binding result is “binds”.

In the case of B8, the binding result is given as “binds”.

The target in a further assay is hemagglutinin of A/Singapore/01/57 (H2N2), in the influenza virus antigen standard (Influenza A virus A/Singapore/1/1957 …, UniProt Q67333, strain). The experiment in a line: ELISA. The following applies: one partner purified.
Turning to B3, the binding result is “binds”.

In the case of B5, the binding result was “binds”.

B8: the binding result is “binds”.

Another assay addresses hemagglutinin of A/HongKong/213/2003 (H5N1), in the influenza virus antigen standard (Influenza A virus A/Hong Kong/213/2003 …, UniProt Q4H2E2, strain). Briefly: ELISA. The following applies: one partner purified.
As for B1, the binding result is reported as “binds”.

On to B3, for which the binding result was “binds”.

Regarding B4, the binding result is recorded as “binds”.

In the case of B5, the binding result is given as “binds”.

With B8, the binding result is recorded as “binds”.

For another assay, the target named is T1, recombinant H2-HA, A/Japan/305/57 (H2N2) (Influenza A virus A/Japan/305/1957 …, UniProt P03451, strain).
T1 construct: source: bought: E-Enzymes (Protein Sciences in the SPR methods)
Briefly: SPR. Conditions: both partners purified.
Consider B1, for which the binding result was “no binding”.

On to B2, for which the binding result is on record as “no binding”.

Take B4: the Kd turned out to be 18.5 nM, the koff came to 0.0142 s⁻¹ and the kon was determined as 764000 M⁻¹ s⁻¹.

In the case of B5, the equilibrium dissociation constant (Kd) was found to be 2.17 nM, the koff was found to be 0.000163 s⁻¹ and the kon worked out at 75400 M⁻¹ s⁻¹.

Consider B6, for which the binding result is given as “no binding”.

With B7, the binding result is “no binding”.

The target in another assay is recombinant H1-HA (D18-I530), A/California/06/2009 (H1N1)pdm09 (Influenza A virus A/California/06/2009 …, UniProt C3W5S1, strain). The experiment in a line: SPR. The following applies: both partners purified.
B1: the Kd stood at 1.87 nM.

As to B2, the dissociation constant (Kd) stood at 9.97 nM, the off-rate (koff) is 0.000151 s⁻¹ and the kon is 15100 M⁻¹ s⁻¹.

With B4, the equilibrium dissociation constant (Kd) is 3.55 nM, the koff came out at 0.000798 s⁻¹ and the kon worked out at 225000 M⁻¹ s⁻¹.

Take B5: the Kd came to 0.18 nM, the off-rate (koff) is 2.96e-05 s⁻¹ and the association rate constant (kon) was 167000 M⁻¹ s⁻¹.

Regarding B6, the Kd is 4.83 nM, the koff amounted to 0.000355 s⁻¹ and the kon is 73800 M⁻¹ s⁻¹.

Regarding B7, the Kd came to 78.8 nM, the dissociation rate constant (koff) is 0.065 s⁻¹ and the kon stood at 825000 M⁻¹ s⁻¹.

B8: the Kd was determined as 0.86 nM.

Another assay addresses recombinant H9-HA, A/HongKong/1073/99 (H9N2) (Influenza A virus A/Hong Kong/1073/99 …, UniProt Q9ICY5, strain). Briefly: SPR. Conditions: both partners purified.
As for B1, the binding result was “no binding”.

In the case of B2, the binding result was “no binding”.

For the molecule B3, the binding result is reported as “no binding”.

Turning to B4, the binding result is “no binding”.

With B5, the Kd is 128 nM, the koff was found to be 0.0528 s⁻¹ and the kon was 413000 M⁻¹ s⁻¹.

For B6, the binding result was “no binding”.

For the molecule B7, the binding result was “no binding”.

For B8, the Kd stood at 6.89 nM.

For the next assay, the target named is recombinant H5-HA, A/Vietnam/1203/2004 (H5N1) (Influenza A virus A/Vietnam/1203/2004 …, UniProt Q5EP31, strain). Briefly: SPR. The following applies: both partners purified.
As for B1, the dissociation constant Kd amounted to 0.18 nM.

As for B2, the binding result is listed as “no binding”.

Consider B4, for which the dissociation constant Kd turned out to be 9.07 nM, the off-rate constant (koff) was 0.00223 s⁻¹ and the kon turned out to be 252000 M⁻¹ s⁻¹.

Consider B5, for which the Kd was 0.15 nM, the koff stood at 2.08e-05 s⁻¹ and the kon was found to be 141000 M⁻¹ s⁻¹.

As for B6, the binding result is given as “no binding”.

For the molecule B7, the binding result is recorded as “no binding”.

As to B8, the Kd is 0.52 nM.

A further assay addresses T2, recombinant H3-HA, A/Brisbane/10/2007 (H3N2) (Influenza A virus A/Brisbane/10/2007 …, UniProt A8W8K8, strain).
T2 construct: source: bought: Protein Sciences
The experiment in a line: SPR; data not shown: sdAbs on immobilised recombinant H3-HA and H7-HA. The following applies: both partners purified. For orientation: Surface plasmon resonance follows binding to a sensor surface in real time, without labels.
Take B1: the binding result is on record as “no binding”.

On to B2, for which the binding result is “no binding”.

Regarding B3, the binding result was “no binding”.

Consider B4, for which the binding result is “no binding”.

In the case of B5, the binding result is recorded as “no binding”.

Take B6: the binding result is recorded as “no binding”.

On to B7, for which the binding result is “no binding”.

As for B8, the binding result is listed as “no binding”.

A further assay concerns the target T3, recombinant H7-HA, A/Netherlands/219/2003 (H7N7) (Influenza A virus …, UniProt Q6VMK1).
T3 construct: source: bought: Protein Sciences
Described as above. Conditions: both partners purified.
For the molecule B1, the binding result is reported as “no binding”.

B2: the binding result is listed as “no binding”.

Turning to B3, the binding result was “no binding”.

Take B4: the binding result is recorded as “no binding”.

Regarding B5, the binding result is listed as “no binding”.

On to B6, for which the binding result is “no binding”.

B7: the binding result is “no binding”.

On to B8, for which the binding result was “no binding”.

The next assay deals with recombinant HA1 domain (D18-R344), A/California/06/2009 (H1N1)pdm09 (Influenza A virus A/California/06/2009 …, UniProt C3W5S1, strain). Briefly: SPR. Conditions: both partners purified.
As to B2, the dissociation constant (Kd) came out at 36 nM.

Take B4: the Kd was determined as 7.66 nM.

B6: the Kd came to 4.62 nM.

With B7, the Kd came to 78.8 nM.

The next assay has as its target hemagglutinin of A/California/07/2009 (H1N1)pdm09, in the influenza virus antigen standard (Influenza A virus A/California/07/2009 …, UniProt C3W5X2, strain). The experiment in a line: ELISA. The following applies: one partner purified.
Take B1: the binding result is given as “binds”.

As for B2, the binding result was “binds”.

Regarding B3, the binding result was “binds”.

Take B4: the binding result is “binds”.

For B5, the binding result is “binds”.

With B6, the binding result is “binds”.

On to B7, for which the binding result is “binds”.

As for B8, the binding result is listed as “binds”.

For the next assay, the target named is phage displayed HA gene fragment P66-I282 (Influenza A virus A/California/07/2009 …, UniProt C3W5X2). Briefly: ELISA. The following applies: both partners purified.
Regarding B1, the binding result is “no binding”.

With B2, the binding result was “binds”.

Regarding B4, the binding result is on record as “no binding”.

Take B5: the binding result is given as “no binding”.

Take B6: the binding result was “binds”.

Consider B7, for which the binding result was “binds”.

Consider B8, for which the binding result was “no binding”.

In another assay the target is phage displayed HA gene fragment D363-G478 (Influenza A virus A/California/07/2009 …, UniProt C3W5X2). Briefly: ELISA. The following applies: both partners purified.
B1: the binding result was “no binding”.

Turning to B2, the binding result was “no binding”.

Consider B3, for which the binding result is listed as “binds”.

B5: the binding result is “no binding”.

With B6, the binding result is “no binding”.

Regarding B7, the binding result is listed as “no binding”.

Take B8: the binding result is “no binding”.

The next assay addresses phage displayed HA gene fragment L193-K225 (Influenza A virus A/California/07/2009 …, UniProt C3W5X2). Briefly: ELISA. Conditions: both partners purified.
Regarding B1, the binding result is “no binding”.

Consider B2, for which the binding result is given as “no binding”.

Consider B4, for which the binding result was “no binding”.

For B5, the binding result is on record as “no binding”.

Take B6: the binding result is “no binding”.

Take B7: the binding result is recorded as “no binding”.

As to B8, the binding result is “no binding”.
